This passage reports fold response to LG69 results from patent publication US6458926.

This assay addresses GAL-RXR (yeast GAL4 DBD linked to the human RXRα LBD) (yeast; human) (UniProt P04386). The assay is described as follows: cell-based or functional assay.

Chain of T3R LBD (SV40 TAg NLS fused upstream of human T3Rβ LBD) (P10828 other isoform, or with tags, fused parts or gaps): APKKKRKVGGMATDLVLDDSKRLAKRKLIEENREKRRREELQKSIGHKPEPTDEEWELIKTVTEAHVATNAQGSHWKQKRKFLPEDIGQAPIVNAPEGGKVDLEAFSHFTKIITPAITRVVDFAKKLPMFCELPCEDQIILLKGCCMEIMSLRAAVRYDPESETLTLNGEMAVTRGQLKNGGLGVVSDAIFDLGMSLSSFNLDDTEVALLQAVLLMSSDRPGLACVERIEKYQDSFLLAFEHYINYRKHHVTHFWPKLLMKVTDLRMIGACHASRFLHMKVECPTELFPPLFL

In turn, “T3R LBD (SV40 TAg NLS fused upstream of human T3Rβ LBD) (from UniProt P10828 173-456)” returned a fold response to LG69 of 57 fold.
